Results from patent publication US20260132392, “GENE EDITING SYSTEMS COMPRISING REVERSE TRANSCRIPTASES” (Metagenomi, Inc., published 2026).

Target: T1, Ec86 retron RT (Escherichia coli, UniProt P23070 P23070:1-320)
T1 sequence: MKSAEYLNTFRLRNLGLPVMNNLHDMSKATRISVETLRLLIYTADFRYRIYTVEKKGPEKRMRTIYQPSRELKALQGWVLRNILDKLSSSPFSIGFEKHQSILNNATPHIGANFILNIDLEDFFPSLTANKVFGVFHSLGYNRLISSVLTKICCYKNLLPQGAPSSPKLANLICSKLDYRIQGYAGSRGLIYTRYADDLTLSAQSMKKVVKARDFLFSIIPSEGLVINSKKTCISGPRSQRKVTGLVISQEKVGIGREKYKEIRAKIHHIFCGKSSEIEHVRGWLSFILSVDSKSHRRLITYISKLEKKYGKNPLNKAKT
Test: msdDNA qPCR, 37 C 2 h
Settings: tags: N-terminal Strep tag
Experimental: The Ec86 RT was co-expressed with the ncRNA substrate (final 100 nM) in a cell-free expression system) supplemented with dNTPs (final 0.3 mM). Expression constructs were codon-optimized for E. coli and contained an N-terminal single Strep tag. After incubation for 2 h at 37° C., the reaction was quenched by heat denaturation at 95° C. for 2 min, followed by treatment by RNase A for 30 min at 37° C. […] The resulting reverse transcription products, herein referred to as msdDNA, were diluted prior to qPCR to ensure msdDNA concentrations were within the linear range of detection. The amount of msdDNA was quantified by extrapolating values from a standard curve generated with a DNA template of known concentrations.

B1: Ec86 wild-type ncRNA (ssRNA)
RNA: GGAUGCGCACCCUUAGCGAGAGGUUUAUCAUUAAGGUCAACCUCUGGAUGUUGUUUCGGCAUCCUGCAUUGAAUCUGAGUUACUGUCUGUUUUCCUUGUUGGAACGGAGAGCAUCGCCUGAUGCUCUCCGAGCCAACCAGGAAACCCGUUUUUUCUGACGUAAGGGUGCGCAACUUUC
B1: binds.
